Here are results for 1 substance from patent publication US20060292117A1.

The target of the assay is serpin enzyme complex receptor (secR) on IB3 cells. The assay can be described thus: cell-based or functional assay.

“VP1 serpin virus (AAV2 capsid with serpin ligand FVFLI substituted for the capsid sequence immediately after aa 34) (from UniProt P03135 1-34; P03135 40-735; P03135 138-735; P03135 203-735)” had an infectivity on IB3 cells (hAAT ELISA) against wt capsid of 62 fold.
